Experimental findings from patent US9809627B2, “Cyclized transthyretin peptide and methods of use therefor” (Wisconsin Alumni Research Foundation, priority 2014, dated 2017) are described below.

Where no end group is shown, it is not given here. [ ]: non-standard residue; d: D form.

One series concerns the target T1, Aβ (Homo sapiens, UniProt P05067).
T1 construct: Amyloid-beta (Aβ or Abeta) denotes peptides of 36-43 amino acids
Nature of the series: Enzyme-linked immunoassay of Aβ binding to immobilized CG3-biotin in presence of serum proteins. The conditions noted are these: Aβ 1, 3 or 5 μg/mL in PBS with 10% or 30% FBS.

In series [1] the target is T2, Aβ (1-40) (Homo sapiens, UniProt P05067).
T2 construct: Aβ (1-40) was purchased from Anaspec, Inc. (Fremont, Calif.) as lyophilized powder; purchased Anaspec, Inc. (Fremont, Calif.)
Nature of the series: Nanoparticle tracking (NTA) of Aβ aggregates. The note with it: 28 μM Aβ, 10:1 Aβ:peptide molar ratio. The format is biochemical. As for the experimental part:
(§1) Aβ (1-40) was purchased from Anaspec, Inc. (Fremont, Calif.) as lyophilized powder. For dynamic light scattering, ThT fluorescence assay, TEM, NTA measurement and filtration/sedimentation assay, Aβ was dissolved in 50% ACN, re-lyophilized, and reconstituted in 8M urea at 12 mg/mL. Aβ stock was then aliquoted, snap-frozen in ethanol with dry ice, and stored at −80° C. For PICUP and proteolytic fragmentation analysis, lyophilized Aβ was dissolved in prechilled hexafluoroisopropanol (HFIP, Acros Organics, Geel, Belgium), aliquoted, dried and stored at −20° C. as previously described (Cho et al., 2014). Aβ sample was prepared right before use by dissolving dried peptides in 50 mM NaOH and diluting into phosphate-buffered saline (PBSA) (10 mM Na2HPO4/NaH2PO4, 150 mM NaCL and 0.02% NaN3 (pH 7.4)) to 30 μM as previously described (Cho et al., 2014).
NTA measurements were taken with a Nanosight LM10 (Nanosight, Amesbury, U.K.) equipped with a 405 nm laser as previously described (Yang et al., 2013). Aβ alone (28 μM) or with CG3 (2.8 μM) were prepared in PBSA and incubated for 5 hr at 37° C. Three 60 s video were taken for each sample.

Series [2] deals with T2, Aβ (1-40). Nature of the series: Filtration/sedimentation assay of Aβ aggregation. It counts as biochemical. As for the experimental part: as §1
Aβ alone (30 μM) or with CG3 (3 μM) was prepared in PBSA and incubated for 24 hr at 37° C. For filtration, 175 μL of sample was filtered through 0.45 μm filter. For sedimentation, 100 μL of sample was transferred onto a separate tube and centrifuged for 30 min at 19,500 ref. The supernatant (80%) was removed. Concentrations of untreated, filtered, and centrifuged samples were measured by BCA assay (Pierce).

Series [3] in a line: Peptide self-association by PICUP cross-linking and gel electrophoresis. The conditions noted are these: PICUP cross-linking, gel electrophoresis. The format is physicochemical. How it is done:
Peptides were also cross-linked by PICUP and analyzed for self-association. Twenty microliters of peptides at 36 μM in PBSA was incubated for 1 hr at 37° C. and cross-linked. Cross-linked samples were then heated at 95° C. for 5 min and separated on a 10-20% Tris-Tricine gradient gel. Peptides were visualized by silver staining (SilverStain Kit, Pierce, Rockford, Ill.).

On to “SKVVT^DPPRYTIAALLSPYSYSQ [CG3] (chain 1 SKVVT[dP]PRYTIAALLSPYSYSQ; chain 2 SKVVT[dP]PRYTIAALLSPYSYSQ; also: head-to-tail to a chain's N/C-terminus) [cyclic 22-mer of TTR residues 104-123 grafted onto DPro-Pro template]”, for which, in the series with Aβ, the “binding of Aβ to immobilized peptide” value is “serum proteins do not interfere with Aβ binding”. Also, the “size of particles detected” value with Aβ (1-40) [1] is on record as “very large (microns)”. Besides, in the series with Aβ (1-40) [2], the “effect on fraction of Aβ aggregates removable by filtration or sedimentation” value is reported as “reduce the fraction of Aβ aggregates that can be removed by filtration or sedimentation”. The “fraction of Aβ-peptide mixture filterable through 0.45 μm filter” value with Aβ (1-40) [2] (30 μM Aβ, 10:1 Aβ excess, at either 0 or 24 hours, 37° C.) was “about 90%”. In addition, in the series with Aβ (1-40) [2] (after 24 hours, centrifuged 30 min, supernatant), the “fraction of Aβ-peptide mixture remaining in solution after centrifugation” value is 91%. For the same substance, in series [3], the “self-association by PICUP” value was “a fraction of CG3 forms a SDS-stable dimer”.
